This assay deals with trypsin-digested STING c-di-GMP binding domain (CBD) (human) (UniProt Q86WV6). The experiment in a line: SEC. A general note: SEC sorts molecules by how far they enter the pores of the column.

For the substance “trypsin-digested STING c-di-GMP binding domain (CBD) (from UniProt Q86WV6 139-379) (domain or fragment)”, the stoichiometry N turned out to be 2.

Usually stoichiometry N stands for a count of units in the complex or per binding partner.

Source of the values: paper PMC3697849.
